Bridge positions count the residues as written; N and C are the ends. Ends that are not written are not given here.
Key:
[1] = system: human prostate cancer cells with known high PSMA expression; test: In vivo biodistribution and PET images in xenograft mouse models of high-PSMA prostate tumor cell line; conditions: data not shown
c-MET receptors = target: T1, c-MET receptors (Homo sapiens, UniProt P08581); test: In vitro saturation binding assay with MKN-45, SNU-16 or U87-MG cells
T1 construct: endogenous in cells; host or cells: MKN-45, SNU-16 or U87-MG cells
T1 sequence (P08581 25-1390): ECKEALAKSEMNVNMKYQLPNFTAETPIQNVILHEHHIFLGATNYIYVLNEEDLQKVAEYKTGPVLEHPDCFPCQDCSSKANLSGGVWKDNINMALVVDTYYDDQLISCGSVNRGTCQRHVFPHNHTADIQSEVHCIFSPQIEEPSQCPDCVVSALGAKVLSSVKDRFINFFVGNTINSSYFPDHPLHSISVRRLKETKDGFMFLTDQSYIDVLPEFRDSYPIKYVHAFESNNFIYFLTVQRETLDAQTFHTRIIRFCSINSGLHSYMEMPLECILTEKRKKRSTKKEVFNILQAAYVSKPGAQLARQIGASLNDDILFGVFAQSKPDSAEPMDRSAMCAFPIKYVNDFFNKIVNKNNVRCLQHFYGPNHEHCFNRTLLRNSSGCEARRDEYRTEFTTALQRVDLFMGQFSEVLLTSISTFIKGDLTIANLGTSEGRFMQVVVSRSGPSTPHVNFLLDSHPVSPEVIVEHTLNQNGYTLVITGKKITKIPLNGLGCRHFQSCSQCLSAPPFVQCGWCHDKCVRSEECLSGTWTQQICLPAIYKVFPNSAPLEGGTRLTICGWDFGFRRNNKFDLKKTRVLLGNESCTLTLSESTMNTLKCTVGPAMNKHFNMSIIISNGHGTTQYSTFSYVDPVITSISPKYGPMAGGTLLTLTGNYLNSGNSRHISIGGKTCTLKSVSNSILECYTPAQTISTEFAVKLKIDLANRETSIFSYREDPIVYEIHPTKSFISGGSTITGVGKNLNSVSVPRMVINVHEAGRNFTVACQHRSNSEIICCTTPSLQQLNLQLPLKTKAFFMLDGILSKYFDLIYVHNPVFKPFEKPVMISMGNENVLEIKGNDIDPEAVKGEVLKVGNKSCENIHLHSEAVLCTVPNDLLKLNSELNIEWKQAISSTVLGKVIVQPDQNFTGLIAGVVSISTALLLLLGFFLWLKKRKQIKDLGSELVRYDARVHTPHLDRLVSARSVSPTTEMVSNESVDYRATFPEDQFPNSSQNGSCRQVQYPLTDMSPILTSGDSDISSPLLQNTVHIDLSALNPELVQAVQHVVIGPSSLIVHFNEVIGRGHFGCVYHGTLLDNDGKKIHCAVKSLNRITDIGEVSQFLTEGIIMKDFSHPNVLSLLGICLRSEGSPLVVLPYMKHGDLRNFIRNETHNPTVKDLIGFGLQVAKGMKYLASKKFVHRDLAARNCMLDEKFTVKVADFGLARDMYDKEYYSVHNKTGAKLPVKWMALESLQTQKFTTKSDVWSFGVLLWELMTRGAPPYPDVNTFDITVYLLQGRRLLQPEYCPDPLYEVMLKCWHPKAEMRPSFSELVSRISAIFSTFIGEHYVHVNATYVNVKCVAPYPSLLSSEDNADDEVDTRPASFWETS
Experimental: In vitro saturation assays were performed to determine the binding affinity of Compound 1 for c-MET receptors. Increasing concentrations of Compound 1 were incubated with MKN-45, SNU-16 or U87-MG cells. Non-specific binding was determined in the presence of an unlabeled Met peptide (10^−5 M). Bound peptide was separated from free peptide and the radioactive content was determined. Data was analyzed using a one site binding hyperbola. […] The binding constant was determined to be 3.9 nM. In addition, the estimated Met expression levels (2.4×10^6 receptors per cell) were consistent with known expression in MKN-45, SNU-16, and U87-MG cells. […] (data not shown)

[2] = system: SNU-16 (moderate Met) xenografts; format: in vivo, mouse
[3] = system: U87-MG (low Met) xenografts; format: in vivo, mouse
[4] = system: MKN-45 (high Met) xenografts
[5] = reported labeled albumin; cited from earlier work

O=C(O)CC[C@H](NC(=O)N[C@@H](CCCCNC(=O)c1ccc([18F])nc1)C(=O)O)C(=O)O [[^18F]DCFPyL]
biodistributions and PET images vs previously reported results [1]: comparable with previously reported results

Compound 1: 18F-labeled c-Met peptide; cyclic peptide of SEQ ID NO: 1 reacted with [18F]fluoronicotinic acid-2,3,5,6-tetrafluorophenyl ester (AGSCYCSGPPRFECWCYETEGTGGGK; disulfide 6-14, 4-16; also: [18F]fluoronicotinoyl conjugated via tetrafluorophenyl ester, site not given here)
specific binding to Met (c-MET receptors; MKN-45 cells, non-specific binding with unlabeled Met peptide 10^−5 M): > 90% | Kd (c-MET receptors; MKN-45 cells, saturation assay, one site binding hyperbola, read-out: binding constant): 3.9 nM | ability to distinguish c-MET concentrations (c-MET receptors; SNU-16 and U87-MG cell lines, data not shown): can distinguish c-MET concentrations | estimated Met expression levels (c-MET receptors; from saturation binding): 2.4×10^6 receptors per cell | PET tumor discernibility ([2]; SNU-16 tumors): discernable | Tumor:Muscle ratio over time course ([2]; mouse, in vivo): 7:1-18:1 | fold decrease of T:M vs MKN-45 T:M ([2]; mouse, in vivo): 2-60 fold | fold decrease of tumor uptake vs MKN-45 tumors ([2]; mouse, in vivo): 2-6 fold | PET tumor discernibility ([3]; U87-MG tumors): more difficult to distinguish | Tumor:Muscle ratio over time course ([3]; mouse, in vivo): 3:1-5:1 | fold decrease of tumor uptake vs MKN-45 tumors ([3]; mouse, in vivo): 3-40 fold | PET visualization ([4]; MKN xenografts, 30 to 120 min post-injection): tumors, kidneys and bladder could be visualized | PET tumor discernibility ([4]; MKN-45 and SNU-16 xenografts, images at 30, 60, 120 min): discerned as early as 30 min | decrease of T:M ratio on blocking with unlabeled Met peptide ([4]; MKN-45 xenografts, compared to unblocked): 65% | decrease of tumor uptake from 30 to 120 min ([4]; mouse, in vivo): approximately 37% | tumor retention and non-target clearance ([4]; mouse, in vivo): highly retained in MKN-45 tumors (high Met expression) and rapidly cleared from non-target tissue

B1: [^18F]albumin: albumin radiolabeled by conjugating Compound 3 to pendant amine groups (protein, UniProt P02770 25-608, looked up)
Albumin: EAHKSEIAHRFKDLGEQHFKGLVLIAFSQYLQKCPYEEHIKLVQEVTDFAKTCVADENAENCDKSIHTLFGDKLCAIPKLRDNYGELADCCAKQEPERNECFLQHKDDNPNLPPFQRPEAEAMCTSFQENPTSFLGHYLHEVARRHPYFYAPELLYYAEKYNEVLTQCCTESDKAACLTPKLDAVKEKALVAAVRQRMKCSSMQRFGERAFKAWAVARMSQRFPNAEFAEITKLATDVTKINKECCHGDLLECADDRAELAKYMCENQATISSKLQACCDKPVLQKSQCLAEIEHDNIPADLPSIAADFVEDKEVCKNYAEAKDVFLGTFLYEYSRRHPDYSVSLLLRLAKKYEATLEKCCAEGDPPACYGTVLAEFQPLVEEPKNLVKTNCELYEKLGEYGFQNAVLVRYTQKAPQVSTPTLVEAARNLGRVGTKCCTLPEAQRLPCVEDYLSAILNRLCVLHEKTPVSEKVTKCCSGSLVERRPCFSALTVDETYVPKEFKAETFTFHSDICTLPDKEKQIKKQTALAELVKHKPKATEDQLKTVMGDFAQFVDKCCKAADKDNCFATEGPNLVARSKEALA
modifications: 18F-labeled via Compound 3
notes: albumin radiolabeled by conjugating Compound 3 to pendant amine groups
blood pool imaging property [5]: excellent blood pool imaging property

From patent US20190151483A1, “METHODS OF MAKING 18F-LABELED PRECURSORS AND PEPTIDES, LABELED C-MET BINDING PEPTIDES, AND METHODS OF USE THEREOF” (The United States of America, as Represented by the …, priority 2016, published 2019)
